To fix the notation:
B1: HDV Ribozyme (parent)
chain: GGCCGGCAUGGUCCCAGCCUCCUCGCUGGCGCCGGCUGGGCAACAUUCCGAGGGGACCGUCCCCUCGGUAAUGGCGAAUGGGACCCA

Among the data in the RNAGym collection of RNA variant scans (doi:10.7554/elife.80360) are self-cleavage values, retold here.

Variants of B1 are the subject of this series. In words: self-cleavage, relative activity (ratio to wild type); higher = more cleavage; co-transcriptional.
For the variant C49U U65A, the self-cleavage came to 0.966. With C49U G73U, the self-cleavage came out at 0.509. Next, G50A C61A: 0.875; G50C C57A: 1.04.

G50C C85A: the self-cleavage stood at 0.933. As to A51C C64A, the self-cleavage came to 0.764.

Take G50A C62U: the self-cleavage stood at 0.926. C49U G54C: the self-cleavage came to 0.856. With C49U G54U, the self-cleavage came to 0.87.

Regarding G50C G54A, the self-cleavage is 0.369. Regarding C49U G81C, the self-cleavage was 0.317. Consider A51C C75G, for which the self-cleavage was 0.415. In the case of G50A C63A, the self-cleavage was 0.436.

On to G50A C63G, for which the self-cleavage stood at 0.0475. As to C49U G74U, the self-cleavage was 0.507.

As for G50U A56C, the self-cleavage worked out at 1.18. Turning to G50U A56G, the self-cleavage was determined as 0.943. Turning to G50U A56U, the self-cleavage was 1.06. Turning to G50A G53A, the self-cleavage turned out to be 0.803. Next, G50A G53C: 0.759; G50A G53U: 0.727; G50U C86U: 0.751. Next, G50U A87G: 0.927; G50U A87U: 0.85; G50U G76A: 1.05. A51C G81U: the self-cleavage is 0.38. Take A51C G81C: the self-cleavage was 0.193. Regarding C49U U69C, the self-cleavage was found to be 0.831. Next, C49G G68U: 0.808; A51C C62U: 1.08; G50A U72C: 0.45.

Turning to C49U G53C, the self-cleavage turned out to be 1.05.

As to C49U G53A, the self-cleavage was determined as 0.916.

Consider G50A C85U, for which the self-cleavage stood at 0.938. Regarding G50A C85A, the self-cleavage is 0.941.

With G50A C64G, the self-cleavage was 0.404.

For G50A C64A, the self-cleavage came to 0.479.

Take G50A C64U: the self-cleavage is 1.26. Next, G50C G76A: 0.915; G50C G76C: 1.08; A51C G73C: 0.293.

Take A51C G73U: the self-cleavage is 0.567. Next, C49U A70U: 0.877. Take C49U A70G: the self-cleavage was 0.748. Take C49U A70C: the self-cleavage came to 0.782.

Regarding A51G C62A, the self-cleavage worked out at 0.812.

As for A51G C62G, the self-cleavage stood at 0.739. In the case of G50U C58G, the self-cleavage was found to be 0.89. As to G50U C58A, the self-cleavage stood at 0.997. The figure for C49G G67A is 0.637; for C49G G67U it is 0.9. For the variant A51G C75G, the self-cleavage was 0.128. The figure for A51G C75A is 0.17; for G50A U65G it is 0.95.

In the case of G50A U65C, the self-cleavage was 0.769. G50U A77G: the self-cleavage stood at 0.639. Regarding A51G C57U, the self-cleavage stood at 0.85. In the case of G50C G80C, the self-cleavage stood at 0.0906. Turning to G50C G80U, the self-cleavage was 0.225. As to A51G C85A, the self-cleavage worked out at 0.673. In the case of G50A A77C, the self-cleavage was 0.227. Consider G50C G52C, for which the self-cleavage is 0.554. Take G50C G52U: the self-cleavage came to 0.554.

G50C G52A: the self-cleavage is 0.66. On to C49U C62G, for which the self-cleavage amounted to 0.665. As for G50U A78G, the self-cleavage was 0.776.

G50U A78C: the self-cleavage was found to be 0.373.

Take G50C G53C: the self-cleavage stood at 0.18. As for C49U G67U, the self-cleavage is 0.859. In the case of C49U G67A, the self-cleavage is 0.891. For the variant G50C C86A, the self-cleavage stood at 0.929. Regarding G50C C86U, the self-cleavage came to 0.748.

For the variant G50C C86G, the self-cleavage amounted to 0.944. For G50U G55A, the self-cleavage was found to be 1.11.

For C49U G82A, the self-cleavage was found to be 0.436. Next, G50A G76C: 0.98; G50A G76A: 1.05; G50U G52U: 0.68. The figure for G50U G52A is 0.799. In the case of C49U U72G, the self-cleavage came out at 0.745.

In the case of C49U U72C, the self-cleavage worked out at 0.554. On to C49U U72A, for which the self-cleavage was found to be 0.965. For C49G U65A, the self-cleavage worked out at 0.573.

Take C49G U65G: the self-cleavage was 0.489.

As for G50U G82C, the self-cleavage was 0.435. Take C49G U72G: the self-cleavage was found to be 0.604. The figure for C49G U72A is 0.0692; for C49G G53U it is 0.723; for C49G G53A it is 0.475. Next, C49G G53C: 0.249; A51G A87U: 0.952; G50C G68A: 0.563.

On to G50C A83U, for which the self-cleavage came to 0.504. Take G50C A83G: the self-cleavage was 0.491. The figure for G50U A83C is 0.375; for G50C C61U it is 0.749; for G50C C61G it is 0.578. The figure for C49G G59U is 0.889; for C49G G59C it is 0.793.

On to A51G A83G, for which the self-cleavage stood at 0.916.

As to A51G A83U, the self-cleavage came out at 0.356. Consider G50C C84U, for which the self-cleavage came to 0.554. Next, A51C G82A: 0.298; A51C G82C: 0.534. Turning to G50U A70C, the self-cleavage turned out to be 0.795. Regarding G50U A70G, the self-cleavage turned out to be 0.846. With C49G G82A, the self-cleavage was determined as 0.0966. The figure for A51C A83U is 0.609.

As for A51C A83G, the self-cleavage is 0.673.

On to G50U C75G, for which the self-cleavage turned out to be 0.277. For G50U C75U, the self-cleavage worked out at 0.13. G50U C75A: the self-cleavage turned out to be 0.0773. Next, A51G C66G: 0.989. On to A51G C66U, for which the self-cleavage is 0.89.

On to A51G C66A, for which the self-cleavage came to 0.889. Turning to A51G C63U, the self-cleavage is 0.969.

Regarding A51G C63G, the self-cleavage amounted to 0.538. Regarding A51G, the self-cleavage turned out to be 0.948. Consider A51C, for which the self-cleavage worked out at 0.972. As for C49U C61G, the self-cleavage was determined as 0.731.

In the case of C49U C61A, the self-cleavage was determined as 0.76. On to A51C C58A, for which the self-cleavage came to 0.779. Take A51C C58U: the self-cleavage came out at 0.95. As to A51C C58G, the self-cleavage stood at 1.02.

With G50A C75U, the self-cleavage stood at 0.178.

For the variant G50A C75A, the self-cleavage turned out to be 0.178. As to A51G C86A, the self-cleavage amounted to 1.16. In the case of G50A G52C, the self-cleavage turned out to be 0.672. With G50U G68C, the self-cleavage is 0.465. For G50U G68A, the self-cleavage turned out to be 0.694. Take A51C A71G: the self-cleavage worked out at 0.918. A51C A71U: the self-cleavage turned out to be 0.892. Next, C49U A78G: 0.692. With G50C C66G, the self-cleavage came to 0.912. In the case of G50U A51G, the self-cleavage was determined as 0.956. G50A G59U: the self-cleavage was 1.18. Regarding G50A G59A, the self-cleavage is 1.03. In the case of G50U U79A, the self-cleavage stood at 0.831.

Consider G50U U79G, for which the self-cleavage stood at 0.802. G50C A70C: the self-cleavage was found to be 0.517. For the variant G50C A70U, the self-cleavage is 0.8. As to G50C A70G, the self-cleavage came to 0.917.

In the case of A51C G55U, the self-cleavage was determined as 0.944. In the case of A51C G55C, the self-cleavage amounted to 0.7. Turning to C49U A71U, the self-cleavage stood at 0.875. With C49U A71G, the self-cleavage was found to be 1.16. Consider C49U A71C, for which the self-cleavage stood at 0.641.

Take G50C G81A: the self-cleavage was found to be 0.443.

As for G50U C61U, the self-cleavage was determined as 0.59. In the case of G50U C61A, the self-cleavage was determined as 0.986. With G50U C61G, the self-cleavage came to 0.67. As for C49G U79G, the self-cleavage came out at 0.762.

Consider C49G U79A, for which the self-cleavage was 0.895. Next, G50U G74U: 0.427.

Consider A51C C85U, for which the self-cleavage was 0.898. For A51C C85G, the self-cleavage was 0.831. Consider A51C C85A, for which the self-cleavage turned out to be 0.755.

As to A51G C61U, the self-cleavage was found to be 0.889. For C49U C86A, the self-cleavage turned out to be 0.793.

As to C49U C75G, the self-cleavage turned out to be 0.0723. In the case of C49U C75U, the self-cleavage was determined as 0.13.

For A51C C61A, the self-cleavage came to 1.05.

In the case of C49U G50A, the self-cleavage was 1.05. In the case of C49U G50C, the self-cleavage was 0.991. The figure for A51C A78G is 0.751.

In the case of G50U U60A, the self-cleavage amounted to 0.87. Consider G50U U60C, for which the self-cleavage worked out at 0.938.
